Assay results reported in article PMC11898079, “Single-Molecule Imaging of Wood Xylans on Surfaces and Their Interaction with GH11 Xylanase” (Biomacromolecules, 2025).
Several values for one entry are separate records, joined by “and”; a condition that tells them apart may be missing. Identical values can stand only once.

Target: the molecule itself
Assay: high-speed atomic force microscopy (HS-AFM); xylanase alone on a clean mica surface, tapping mode, 100 mM sodium phosphate buffer pH 6; 2 uL of 12.5 ug/mL xylanase added into 80 uL buffer during imaging; self-association seen as transient dimers and trimers of single molecules on the surface

B1: Endo-1,4-β-D-xylanase from Neocallimastix patriciarum (GH11) (enzyme)
chain: AEFQSFCSSASHSGQSVKVTGNKVGTIGGVGYELWADSGNNSATFYSDGSFSCTFQNAGDYLCRSGLSFDSTKTPSQIGRMKADFKLVKQNSSNVGYSYVGVYGWTRSPLVEYYIVDNWLSPFPPGDWVGNKKHGSFTIDGAQYTVYENTRTGPSIDGDTTFNQYFSIRQQARDCGTIDISAHFDQWEKLGMTMGKLHEAKVLGEAGNVNGGASGTADFPYAKVYIGD
notes: Endo-1,4-β-D-xylanase, glycoside hydrolase family 11, Neocallimastix patriciarum; printed Mw 25,800 g/mol; Commercial enzyme; also called GH11 xylanase; GH11 endoxylanase; source: bought: Megazyme Ltd
stoichiometry N: 2 and 3
